# Where two headings read alike, the source gives them in different places.
# B1: B11: fully human IgG1 antibody specific for ICAM-1; VH and VL sequences of FIG. 10 (SEQ ID NOs. 6 and 8) (antibody, listed as Homo sapiens, V domains shown)
# VH: EVQLLESGGGLVQPGGSLRLSCAASGFTFSNAWMSWVRQAPGKGLEWVAFIWYDGSNKYYADSVKGRFTISRDNSKNTLYLQMNSLRAEDTAVYYCARYSGWYFDYWGQGTLVTVSS
# VL: QSVLTQPPSASGTPGQRVTISCTGSSSNIGAGYDVHWYQQLPGTAPKLLIYDNNNRPSGVPDRFSGSKSGTSASLAISGLRSEDEADYYCQSYDSSLSAWLFGGGTKLTVLG
# Legend:
# B lymphoma tissue = assay: Immunohistochemistry on cryopreserved lymph node biopsies; assay type: binding, human; parameters: key: Increasing numbers of + indicate stronger staining.; ++: Increasing numbers of + indicate stronger staining.; +++: Increasing numbers of + indicate stronger staining
# Description: Cryopreserved lymph node biopsies of patients with Anaplastic Large Cell B lymphoma (one patient), Centroblastic/Centrocytic B non-Hodgkin lymphoma (three patients), and B cell chronic lymphocytic leukaemia (one patient) were obtained from the Department of Pathology at Lund University (Lund, Sweden). Eight-micrometer sections of cryo-preserved tissue were fixed in acetone for 10 min at 4° C. Endogenous biotin-binding activity was blocked by sequential treatment with Avidin and Biotin (Avidin/Biotin blocking kit, Invitrogen) for 20 min each.
# Tissues were incubated with 5 μg/ml control scFv or B11 scFv for 1 h. Following washing, sections were incubated with biotin-conjugated mouse anti-His mAb (R&D Systems) for 30 min. scFv binding was detected following treatment with ABC Complex/HRP reagent (Dako Cytomation) for 30 min, and subsequent incubation with DAB for 5 min.
# Sections were photographed using a Leica DC 300F digital camera mounted on top of a Leica DMR light/fluorescence microscope.
# Ramos cells = assay: Flow-cytometric IgG binding, Ramos cells mixed with peripheral blood leukocytes; parameters: species or system human
# From the text: (§1) Washing was repeated twice.
# monocyte cells = assay: as above; parameters: species or system human
# From the text: as §1
# [1] = system: other monitored peripheral blood leukocyte subsets; assay: as above; parameters: species or system human
# From the text: as §1
# [2] = system: peripheral blood B lymphocytes; assay: as above; parameters: species or system human
# From the text: as §1
# [3] = system: HPAC pancreatic carcinoma; assay: IgG binding to tumour cell line, flow cytometry; parameters: species or system human; settings: compared to the prostate cancer cells
# From the text: (§2) FIG. 6—Binding of B1, B11, C11 IgG, to tumour cell lines of different origin. The antigen distribution of antigens targeted by the B1, B11, and C11 antibodies on different carcinoma cell lines was investigated by flow-cytometry.
# (§3) The antigen distribution of human antibody targeted antigens, mainly for B11, on different carcinoma cell lines was investigated. Cells (MCF-7 and MDA MB 435S breast carcinoma, JAR and JEG-3 chorio-carcinoma, A549 lung carcinoma, TCC-SUP urinary bladder carcinoma, MDA MB 435 melanoma, HPAC, PANC-1 and BxPC-3 pancreatic carcinoma, PC-3 and DU145 prostate carcinoma, LS174 T, CaCo2, and Lovo colorectal carcinoma, and THP-1 monocytic leukaemia cells), were washed in PBS, and resuspended at 4×10^6 cells/ml in Complete Medium (200,000 cells/50 […] sample). […] Cells were incubated with either of the antibodies for 1 hour on ice, washed by resuspension in PBS/BSA 0.5%, centrifuged at 1200 rpm for 5 min, and complete aspiration of the supernatants was undertaken. Cells were incubated with PE-conjugated Goat F(ab′)2 anti-Human IgG (Caltag Laboratories, Cat no: H10104), diluted 1/50 in PBS/BSA 0.5%, for 30 min, on ice. Following resuspension of in 300 μl PBS/BSA 0.5%, cells were analysed for IgG binding using a FACScan instrument.
# [4] = system: LS174 T colorectal carcinoma; assay: IgG binding to tumour cell line, flow cytometry; parameters: species or system human; settings: compared to the prostate cancer cells
# From the text: as §2, §3
# MCF-7 breast carcinoma = assay: IgG binding to tumour cell line, flow cytometry; parameters: species or system human; settings: MCF-7, compared to the prostate cancer cells
# From the text: as §2, §3
# [5] = system: THP-1 monocytic leukaemia cells; assay: IgG binding to tumour cell line, flow cytometry; parameters: species or system human
# From the text: as §2, §3
# PC-3 cells = assay: Apoptosis induction in carcinoma cells (cross-linked IgG, 16-24 hours, Annexin V/PI); assay type: cell-based, human; settings: PC-3, cross-linked IgG
# Description: The prostate carcinoma cell line PC-3 was grown in Complete Growth Medium (RPMI 1640, supplemented with 10% FCS, 10 mM HEPES, and 2 mM L-Glutamine) to 80% confluency in a 6 well plate. The prostate carcinoma cell line DU145 was grown in MEM with Earl's salts, supplemented with 10% FCS, 1 mM sodium pyruvate, and 1 mM non-essential amino acids and the derivate of a melanoma cell line MDA MB 435 was grown in DMEM supplemented with 10% FCS.
# For apoptosis assays cells were washed in PBS and serially diluted B11 IgG1 (or B1 IgG1, Trastuzumab or negative antibody control for controls) was added to individual wells and binding was allowed during a 1-2 h incubation at 4° C. The cells were washed and Complete Growth Medium was added, containing cross-linking antibody, Fab′2 Goat anti-Human Fab′2, at 10 μg/ml. Cells were incubated in a humidified atmosphere, with 5% CO2 at 37° C., for 16-24 hours. […] The percentage apoptotic cells was determined by the formula: % apoptotic cells=100−% AF488−AV/PI−/−.
# Cells were seeded in 6 well plates with Complete Growth Medium three days before the onset of the experiment. […] Cells were washed in ice-cold PBS, subjected to Annexin V/propidium iodide staining, and analysed for viability/apoptosis as described in example 5 above.
# [6] = system: panel of ICAM-1-expressing tumor cell lines; assay: CDC; assay type: cell-based; settings: human serum
# Description: (§4) Target cells were harvested as described above (under ADCC heading) and incubated with antibodies at 5 μg/mL for 60 min on ice and then washed. Human serum, normal or heat-inactivated (Sigma, Sweden), was added to tubes and the samples were incubated for 2 hr at 37° C. After completion of incubation, ToPo-Pro-3 (Invitrogen) was added at a final concentration of 0.3 μM and cells were analyzed for membrane permeabilization using flow cytometry.
# [7] = system: human peripheral blood B cells; assay: Direct cytotoxic effects (PCD, ADCC, CDC) on normal cells; assay type: cell-based; settings: antibody cross-linked or not
# Description: All experiments were performed in triplicate.
# as §4
# [8] = mouse
# Description: Blood samples collected from the vena cava were centrifuged at 2500 g for 15 min to obtain serum and the samples were stored at −20° C.
# Sera were prepared from blood samples collected from the vena saphena from 3 animals in each group at different time-points during the course of in vivo experimentation. Briefly, ELISA plates were coated over night with human ICAM-1 protein. The following day, plates were incubated with the serum samples. Biotinylated goat-anti-BI-505 was used for detection of BI-505 in the serum samples. Sera were analysed by ELISA to determine BI-505 trough levels. Trough BI-505 serum concentrations were then plotted as a function of dose and were fitted using five parameter log-log curve and XLfit software (IDBS, Guildford, United Kingdom).
molecule,measurement,setting,value
B1,Staining of B lymphoma tissue,"B lymphoma tissue; Patient A, B-CLL (low malignant non-Hodgkin Lymphoma)",+
same,Staining of B lymphoma tissue,"B lymphoma tissue; Patient B, Anaplastic Large Cell B Cell Lymphoma",++
same,Staining of B lymphoma tissue,"B lymphoma tissue; Patient D, B-CLL/B-PLL",++
same,Staining of B lymphoma tissue,"B lymphoma tissue; Patient F, Centroblastic-Centrocytic B non-Hodgkin Lymphoma",++
same,MFI,Ramos cells,654
same,concentration at which binding peaked,Ramos cells,0.1 µg/mL
same,MFI,monocyte cells,176
same,binding,[1],negative
same,MFI,[2],78
same,binding / ICAM-1 expression,[3],lower intensity
same,binding / ICAM-1 expression,[4],lower intensity
same,binding / ICAM-1 expression,MCF-7 breast carcinoma,lower intensity
same,binding / ICAM-1 expression,[5],did not express ICAM-1
same,Apoptosis Induction,PC-3 cells,induce apoptosis
same,CDC,[6],did not induce CDC
same,cell death in normal cells,[7],did not induce cell death
same,In vivo serum concentrations,[8]; 0.02 mg/kg,0.06 ± 0.02 µg/mL
same,In vivo serum concentrations,[8]; 0.2 mg/kg,1.2 ± 0.4 µg/mL
same,In vivo serum concentrations,[8]; 2 mg/kg,20 ± 2.9 µg/mL

# — US9803013B2, “Biological materials and uses thereof” (BioInvent International AB, priority 2005, dated 2017)
